From US20100184651 come the findings set out here.

The data set deals with VIP-BH3 BID fusion protein.
VIP-BH3 BID fusion protein, sequence (chain, as listed by the source): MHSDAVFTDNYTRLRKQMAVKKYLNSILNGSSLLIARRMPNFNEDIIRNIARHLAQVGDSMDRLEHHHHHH

recombinant human cathepsin D, sequence (chain, as listed by the source): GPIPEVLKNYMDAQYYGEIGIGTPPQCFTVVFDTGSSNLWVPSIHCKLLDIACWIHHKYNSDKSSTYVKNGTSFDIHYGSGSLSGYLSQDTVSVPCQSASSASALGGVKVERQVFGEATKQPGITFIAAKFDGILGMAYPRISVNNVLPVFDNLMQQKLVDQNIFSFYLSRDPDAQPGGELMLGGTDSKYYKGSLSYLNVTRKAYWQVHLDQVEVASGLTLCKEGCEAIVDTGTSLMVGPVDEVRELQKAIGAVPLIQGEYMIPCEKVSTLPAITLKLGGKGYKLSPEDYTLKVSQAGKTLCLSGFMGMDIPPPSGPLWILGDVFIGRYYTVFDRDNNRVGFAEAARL

Regarding recombinant human cathepsin D, the “cleavage of fusion protein by cathepsin D at ˜400:1 (w/w), followed by mass spectrometry” value is “The first cleavage occurred at the linker by around 30 minutes of treatment with the protease”.
